The source of these data is the supplement of paper PMC9112550, “Optimization of the antimicrobial peptide Bac7 by deep mutational scanning” (BMC Biology, 2022).

In this series the test system is Escherichia coli TOP10. Description: shrunken log2 fold change of peptide-encoding DNA abundance (4.5 h post-induction vs induction); higher = less antimicrobial activity (less host growth inhibition). The settings on record: time post-induction: 4.5 h; library: site-saturation at positions 5, 18, 19, 20.
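Further: peptides expressed intracellularly from a pBAD plasmid library in pooled LB shake-flask culture, induced with 0.3% L-arabinose, DNA abundance read by NGS, three biological replicates, DESeq2 with apeglm shrinkage.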

Regarding RRIRMRPPRLPRPRPRPWLDPRP, the “shrunken log2 fold change” value is 0.0568.

RRIRARPPRLPRPRPRPWVKPRP: the “shrunken log2 fold change” value was found to be 0.0825.

On to RRIRMRPPRLPRPRPRPFYMPRP, for which the “shrunken log2 fold change” value was -0.054.

RRIRPRPPRLPRPRPRPSHIPRP: the “shrunken log2 fold change” value was -0.505.

For the sequence RRIRMRPPRLPRPRPRPPRCPRP, the “shrunken log2 fold change” value was 1.38.

Consider RRIRDRPPRLPRPRPRPHELPRP, for which the “shrunken log2 fold change” value is -0.124.

On to RRIRNRPPRLPRPRPRPDYFPRP, for which the “shrunken log2 fold change” value is -0.209.

As to RRIRSRPPRLPRPRPRPSQEPRP, the “shrunken log2 fold change” value is -0.26.

Regarding RRIRPRPPRLPRPRPRPQNVPRP, the “shrunken log2 fold change” value is -0.212.

For RRIRARPPRLPRPRPRPKHWPRP, the “shrunken log2 fold change” value came out at 0.593.

Consider RRIRIRPPRLPRPRPRPSRGPRP, for which the “shrunken log2 fold change” value amounted to 0.242.

Consider RRIRNRPPRLPRPRPRPNYDPRP, for which the “shrunken log2 fold change” value is -0.222.

Regarding RRIRFRPPRLPRPRPRPGYRPRP, the “shrunken log2 fold change” value is -0.0212.

Consider RRIRHRPPRLPRPRPRPCVVPRP, for which the “shrunken log2 fold change” value was determined as 0.000418.

Turning to RRIRQRPPRLPRPRPRPIETPRP, the “shrunken log2 fold change” value is 0.00824.

Turning to RRIRYRPPRLPRPRPRPCMNPRP, the “shrunken log2 fold change” value is -0.0223.

Turning to RRIRVRPPRLPRPRPRPCDIPRP, the “shrunken log2 fold change” value is -0.149.

In the case of RRIRPRPPRLPRPRPRPFYKPRP, the “shrunken log2 fold change” value is -0.25.

As to RRIRARPPRLPRPRPRPACQPRP, the “shrunken log2 fold change” value stood at 0.486.

For the sequence RRIRQRPPRLPRPRPRPYPHPRP, the “shrunken log2 fold change” value is -0.0795.

Regarding RRIRLRPPRLPRPRPRPWPCPRP, the “shrunken log2 fold change” value stood at 0.209.

Consider RRIRNRPPRLPRPRPRPEKGPRP, for which the “shrunken log2 fold change” value was -0.0357.

As for RRIRNRPPRLPRPRPRPIRSPRP, the “shrunken log2 fold change” value was -0.389.

Turning to RRIRYRPPRLPRPRPRPNDKPRP, the “shrunken log2 fold change” value was -0.892.

For the sequence RRIRWRPPRLPRPRPRPIEGPRP, the “shrunken log2 fold change” value is -0.000175.

With RRIRERPPRLPRPRPRPFLMPRP, the “shrunken log2 fold change” value is -0.209.

Consider RRIRERPPRLPRPRPRPPRKPRP, for which the “shrunken log2 fold change” value turned out to be 0.387.

Consider RRIRHRPPRLPRPRPRPNKHPRP, for which the “shrunken log2 fold change” value was -0.627.

Turning to RRIRLRPPRLPRPRPRPTDSPRP, the “shrunken log2 fold change” value is 2.57.

Turning to RRIRVRPPRLPRPRPRPCRRPRP, the “shrunken log2 fold change” value was -0.299.

On to RRIRTRPPRLPRPRPRPKHYPRP, for which the “shrunken log2 fold change” value was -0.339.

For the sequence RRIRQRPPRLPRPRPRPTTNPRP, the “shrunken log2 fold change” value was -0.143.

Consider RRIRHRPPRLPRPRPRPSACPRP, for which the “shrunken log2 fold change” value is -0.0435.

In the case of RRIRIRPPRLPRPRPRPQQTPRP, the “shrunken log2 fold change” value is -0.169.

With RRIRMRPPRLPRPRPRPAGNPRP, the “shrunken log2 fold change” value turned out to be 0.396.

As to RRIRQRPPRLPRPRPRPEYWPRP, the “shrunken log2 fold change” value turned out to be 0.0626.

Turning to RRIRYRPPRLPRPRPRPLQQPRP, the “shrunken log2 fold change” value was -0.25.

Regarding RRIRYRPPRLPRPRPRPFWRPRP, the “shrunken log2 fold change” value came to 0.0184.

As to RRIRPRPPRLPRPRPRPCGGPRP, the “shrunken log2 fold change” value turned out to be 0.224.

On to RRIRLRPPRLPRPRPRPAWHPRP, for which the “shrunken log2 fold change” value came to 0.183.

Consider RRIRQRPPRLPRPRPRPVVVPRP, for which the “shrunken log2 fold change” value was -0.0728.

Regarding RRIRTRPPRLPRPRPRPMTVPRP, the “shrunken log2 fold change” value is -0.294.

Regarding RRIRHRPPRLPRPRPRPEVAPRP, the “shrunken log2 fold change” value is -0.00165.

For RRIRSRPPRLPRPRPRPGSWPRP, the “shrunken log2 fold change” value turned out to be 0.605.

Take RRIRPRPPRLPRPRPRPADAPRP: the “shrunken log2 fold change” value was found to be 0.29.

Take RRIRKRPPRLPRPRPRPEDCPRP: the “shrunken log2 fold change” value was -0.00264.

With RRIRARPPRLPRPRPRPDVLPRP, the “shrunken log2 fold change” value turned out to be 0.579.

With RRIRDRPPRLPRPRPRPCELPRP, the “shrunken log2 fold change” value worked out at 0.0111.

On to RRIRNRPPRLPRPRPRPQYWPRP, for which the “shrunken log2 fold change” value is -0.37.

In the case of RRIRDRPPRLPRPRPRPNNRPRP, the “shrunken log2 fold change” value was -0.178.

Consider RRIRVRPPRLPRPRPRPPRHPRP, for which the “shrunken log2 fold change” value was 0.252.

In the case of RRIRGRPPRLPRPRPRPWKLPRP, the “shrunken log2 fold change” value came to 0.0361.

Turning to RRIRHRPPRLPRPRPRPMREPRP, the “shrunken log2 fold change” value turned out to be 0.237.

In the case of RRIRVRPPRLPRPRPRPWYKPRP, the “shrunken log2 fold change” value was -0.252.

For the sequence RRIRDRPPRLPRPRPRPRNWPRP, the “shrunken log2 fold change” value is 0.615.

As to RRIRMRPPRLPRPRPRPIRQPRP, the “shrunken log2 fold change” value was -0.0521.

With RRIRWRPPRLPRPRPRPYDRPRP, the “shrunken log2 fold change” value stood at 0.0155.

RRIRHRPPRLPRPRPRPFPYPRP: the “shrunken log2 fold change” value was -0.0859.

In the case of RRIRGRPPRLPRPRPRPKLIPRP, the “shrunken log2 fold change” value worked out at 0.479.

As to RRIRKRPPRLPRPRPRPYRRPRP, the “shrunken log2 fold change” value was -0.105.

On to RRIRFRPPRLPRPRPRPPFNPRP, for which the “shrunken log2 fold change” value is -0.245.

As to RRIRNRPPRLPRPRPRPQQVPRP, the “shrunken log2 fold change” value is -0.0087.

For the sequence RRIRVRPPRLPRPRPRPMKRPRP, the “shrunken log2 fold change” value worked out at 0.0336.

As for RRIRPRPPRLPRPRPRPCSEPRP, the “shrunken log2 fold change” value is -0.00276.

Consider RRIRLRPPRLPRPRPRPPGIPRP, for which the “shrunken log2 fold change” value was -0.383.

Regarding RRIRIRPPRLPRPRPRPIWPPRP, the “shrunken log2 fold change” value is 0.155.

Turning to RRIRSRPPRLPRPRPRPPSWPRP, the “shrunken log2 fold change” value turned out to be 0.482.

For the sequence RRIRHRPPRLPRPRPRPNFIPRP, the “shrunken log2 fold change” value was -0.0658.

As to RRIRFRPPRLPRPRPRPLGPPRP, the “shrunken log2 fold change” value was 0.148.

On to RRIRDRPPRLPRPRPRPSPWPRP, for which the “shrunken log2 fold change” value came out at 0.188.

On to RRIRYRPPRLPRPRPRPQTQPRP, for which the “shrunken log2 fold change” value was -0.275.

RRIRSRPPRLPRPRPRPHTEPRP: the “shrunken log2 fold change” value was -0.599.

As to RRIRDRPPRLPRPRPRPSWWPRP, the “shrunken log2 fold change” value was found to be 0.276.

As to RRIRTRPPRLPRPRPRPIHFPRP, the “shrunken log2 fold change” value was -0.00174.

In the case of RRIRMRPPRLPRPRPRPCFEPRP, the “shrunken log2 fold change” value came to 0.286.

RRIRFRPPRLPRPRPRPQHNPRP: the “shrunken log2 fold change” value is -0.781.

Regarding RRIRRRPPRLPRPRPRPEWSPRP, the “shrunken log2 fold change” value stood at 0.274.

Consider RRIRQRPPRLPRPRPRPKLPPRP, for which the “shrunken log2 fold change” value was 0.146.

As for RRIRRRPPRLPRPRPRPKPTPRP, the “shrunken log2 fold change” value is 0.426.

In the case of RRIRYRPPRLPRPRPRPTREPRP, the “shrunken log2 fold change” value is -0.145.

As to RRIRTRPPRLPRPRPRPKCGPRP, the “shrunken log2 fold change” value was -0.0177.

In the case of RRIRRRPPRLPRPRPRPSAIPRP, the “shrunken log2 fold change” value came to 0.0689.

As to RRIRHRPPRLPRPRPRPPGHPRP, the “shrunken log2 fold change” value came out at 0.184.

With RRIRLRPPRLPRPRPRPFFMPRP, the “shrunken log2 fold change” value is -0.369.

For RRIRHRPPRLPRPRPRPVLIPRP, the “shrunken log2 fold change” value is -0.113.

For RRIRSRPPRLPRPRPRPFEPPRP, the “shrunken log2 fold change” value is -0.268.

On to RRIRLRPPRLPRPRPRPMMMPRP, for which the “shrunken log2 fold change” value was -0.114.

RRIRCRPPRLPRPRPRPEAGPRP: the “shrunken log2 fold change” value is 0.4.

For RRIRWRPPRLPRPRPRPYVRPRP, the “shrunken log2 fold change” value was -0.0178.

Turning to RRIRERPPRLPRPRPRPCSKPRP, the “shrunken log2 fold change” value worked out at 0.2.

Consider RRIRGRPPRLPRPRPRPIKCPRP, for which the “shrunken log2 fold change” value is -0.0104.

Regarding RRIRKRPPRLPRPRPRPMWNPRP, the “shrunken log2 fold change” value was found to be 0.232.

RRIRLRPPRLPRPRPRPTETPRP: the “shrunken log2 fold change” value was -0.021.

Turning to RRIRERPPRLPRPRPRPWHKPRP, the “shrunken log2 fold change” value was -0.236.

For the sequence RRIRMRPPRLPRPRPRPQPWPRP, the “shrunken log2 fold change” value was found to be 0.561.

With RRIRPRPPRLPRPRPRPYKDPRP, the “shrunken log2 fold change” value was -0.477.

In the case of RRIRGRPPRLPRPRPRPGDFPRP, the “shrunken log2 fold change” value turned out to be 0.00388.

For RRIRCRPPRLPRPRPRPWVKPRP, the “shrunken log2 fold change” value is -0.352.

Consider RRIRQRPPRLPRPRPRPDYQPRP, for which the “shrunken log2 fold change” value was 0.00672.

On to RRIRRRPPRLPRPRPRPETGPRP, for which the “shrunken log2 fold change” value was determined as 0.304.

Regarding RRIRERPPRLPRPRPRPHRYPRP, the “shrunken log2 fold change” value worked out at 0.0893.

Regarding RRIRIRPPRLPRPRPRPMNEPRP, the “shrunken log2 fold change” value is 0.0707.

On to RRIRPRPPRLPRPRPRPMTHPRP, for which the “shrunken log2 fold change” value was -0.268.

As to RRIRHRPPRLPRPRPRPVGTPRP, the “shrunken log2 fold change” value turned out to be 0.0773.

RRIRFRPPRLPRPRPRPWITPRP: the “shrunken log2 fold change” value is -0.192.

For the sequence RRIRERPPRLPRPRPRPSRKPRP, the “shrunken log2 fold change” value worked out at 0.113.

Turning to RRIRYRPPRLPRPRPRPLIQPRP, the “shrunken log2 fold change” value was -0.559.

With RRIRGRPPRLPRPRPRPYNIPRP, the “shrunken log2 fold change” value is -0.2.

On to RRIRWRPPRLPRPRPRPEVVPRP, for which the “shrunken log2 fold change” value was -0.0122.

In the case of RRIRHRPPRLPRPRPRPNHCPRP, the “shrunken log2 fold change” value is -0.0509.

For RRIRCRPPRLPRPRPRPNKQPRP, the “shrunken log2 fold change” value was -0.201.

For RRIRNRPPRLPRPRPRPEQQPRP, the “shrunken log2 fold change” value was determined as 0.736.

With RRIRTRPPRLPRPRPRPDQAPRP, the “shrunken log2 fold change” value was -0.0986.

As to RRIRHRPPRLPRPRPRPKKFPRP, the “shrunken log2 fold change” value is -0.123.

Regarding RRIRFRPPRLPRPRPRPDCEPRP, the “shrunken log2 fold change” value was found to be 0.175.

For RRIRIRPPRLPRPRPRPCIMPRP, the “shrunken log2 fold change” value was -0.466.

Take RRIRTRPPRLPRPRPRPRGVPRP: the “shrunken log2 fold change” value stood at 0.196.

RRIRLRPPRLPRPRPRPSADPRP: the “shrunken log2 fold change” value came out at 0.07.

As for RRIRVRPPRLPRPRPRPHYEPRP, the “shrunken log2 fold change” value was -0.173.

On to RRIRIRPPRLPRPRPRPETSPRP, for which the “shrunken log2 fold change” value was -0.239.

RRIRARPPRLPRPRPRPRNRPRP: the “shrunken log2 fold change” value was 0.0657.

In the case of RRIRTRPPRLPRPRPRPTSLPRP, the “shrunken log2 fold change” value is -0.123.

Consider RRIRMRPPRLPRPRPRPSWIPRP, for which the “shrunken log2 fold change” value came to 0.0389.

Regarding RRIRRRPPRLPRPRPRPCHCPRP, the “shrunken log2 fold change” value is -0.0688.

RRIRARPPRLPRPRPRPLPFPRP: the “shrunken log2 fold change” value is -0.249.
